Data published in a protein production outcome set (Wang et al. 2014).

test: label from the status in PepcDB records

For “MNKSSATIMAAALMLASSCTEVKQEGQGYEPIIGKQEITIKDGRLTPEALWAMGRIGSLSISPDGKQIAYTVAYYSVPENKSHHVIYVMDADGKNNTLLTQTAWNESEPQWIKGGTKIAFLCNESGGSQIWEMNPDGTERRIISDFKGNIEGFSFSPDGKKILFISQIKYGQRTVDLYPDLPKASGIIVNDLMYKHWDEWVESIPHPFIADFDGNMMGAATDIMEGEPFEAPMKPFGGIEQLAWSNDSKQIAYTSRKKQGLAYAVSTDSDIYLYNIEKGTTLNLCKPNGKDSNGTDEMKGYDTNPKFSPNGKYIAWQSMERDGYESDRNRLCIYNLDDGQKTFVTESFESGVDDYCWNNDSQSLYFVGVWHGTSMVYSANLNGDIKKLTDGMYDYGSVAMAGDKIITKRHSISAADEIYTLTPADGQVAQLSHENDHIFKQLNLGKVEERWTKTTDGKQMLSWVIYPVNFDANKKYPTLLFCEGGPQSPVSQFWSYRWNFQIMAANDYIIIAPNRRGLPGFGMEWLEQISGDYGGQCMKDYLSAIDDISKEPYVDTNRLGCVGASFGGFSVYWLAGHHDKRFKAFIAHDGIFNMEQQYLETEEMWFANWDMGGAYWDKNNATAQRTFANSPHRFVDKWDTPILCIHGEKDYRILASQGMSAFNAAVLRGVPAELLLYPDENHWVLKPQNGVLWQRTFFSWLDKWLK”, which protein production is on record?
The protein production was “failed”.

Which protein production does the source give for “MNLASIIGWGVGFGAILISMAFTPTGLGVFWDLSSVFITVVGSFSALMASSEVVAVKKIPTYLGFFFRRNSYAKVSIIKILVELSEKARKEGLLSLDDELEQINDPFFKSGMRLVVDGADPEVIRTMLYLELDQMQERHKVGSDLFKTWAKLAPAFGMTGTLIGLVALLGNLEDKSALGSSMAVALITTLYGTIMANLMFTPVQLKLEKIDTEEAAVKTMIIEGVLSIQSGDNPRILEQKLMTFLTPKDRSQLNSSIGGE” here?
Its protein production is “failed”.

For “MNLDAPRVLVLNAAYEVLGLASIKRAVLLVLGGGAEMVSESGLYLNTPSTRIPVPSVVRLKRMVRRRPGRVPLNRRNVLRRDRYTCQYCGQKGGELTVDHVLPKSRGGKSTWDNLVAACRSCNLRKGDRTPEEAGMRLLRPPKPPRVPLFLLDLKEVPPDWRPFVEGLLGLEHHHHHH”, which protein production is on record?
Its protein production is “not failed”.

For “MNLDHLYPFGFRSTLFDRLTPEYEDLKGLSIHQLRESVARDLEDLLNSRVAKMDDVLVNYPLARQSILQFGIIDFVGLSTANPMDREKICQSIEQSIAAHEPRLKQVKVEMLLDGHNMGALCLSIQAYLNIHPLYEPVVFDALLKPTTQQYVISAQT”, which protein production is on record?
The protein production was “failed”.

With “MNLEPLRKRVRQYLDQQQYQSALFWADKVASLSHEEPQDVYWLAQCLYLTAQYHRAAHALRSRKLDKLYEACRYLAARCHYAAKEHQQALDILDMEEPINRRLFEKYLKDDNGSRDPSSDWEMSQSSIKSSICLLRGKIYDALDNRTLATYSYKEALKLDVYCFEAFDLLTSHHMLTAQEEKELLDSLPLNKLCAEEQELLRFVFENKLKKYNKPSETVIPESVDGLQENLDVVVSLAERHYYNCDFKMCYKLTSTVMEKDPFHANCLPVHIGTLVELNKANELFYLSHKLVDLYPSNPVSWFAVGCYYLMVGHKNEHARRYLSKATTLEKTYGPAWIAYGHSFAVESEHDQAMAAYFTAAQLMKGCHLPMLYIGLEYGLTNNSKLAERFFGQALSIAPEDPFVIHEVGVVAFQNGEWKTAEKWFLDALEKIKAIGNEVTVDKWEPLLNNLGHVCRKLKKYAEALDYHRQALVLIPQNASTYSAIGYIHSLMGNFENAVDYFHTALGLRRDDTFSVTMLGHCIEMYIGDSEAYIGADIKDKLKCYDFDVHTMKTLKNIISPPWDFRDFEVEKQNTEEAGLAPLQNSTKAPESRPNLEETFEIEMNESDMMLETSMSDHST” as the sequence, how does the protein production read?
The protein production was “failed”.

For “MNLESKWLEDFSALAATRSFSQAAERRFVTQPAFSRRIRSLEAALGLVLVNRSRTPVELTAAGQLFLVTARTVVEQLGEVVRHLHHLEGGQGEVMQVAAAHSLALGFFPRWIAQLRNEGLNIATRLVATNVGDAVHALREGGCDLMLAFYDPDAALQMDAEIFPSLHLGHTEMLPVCAADAEGRPLFDMEGEASVPLLAYSTGAFLGRSVNLLLRQRNLRFTTVYETAMADSLKSMALEGLGIAWVPQLSVRAELARGELVVCGGPQWHVPLEIRLYRCALVRKANVRLLWRKLESAAPPESL”, which protein production is on record?
Its protein production is “failed”.

For “MNLGQWGEIMSWLCLLPISGGIVYNLLTVFTTSLFLARSLPKQDFQPGVSVLKPVRGLEKNLEANLRTIAQQNYPAYEVIYCVQDPQDPALPIVKKLQAEFGPEKIIVAVHQIEQGANGKVNNLLGGLKHAKYDILVISDSDTNLRPDYLATMVSPLGDRLVGCVTTPFKLTQAQTWYEGLELLSINADFMPSVLFAEVTGASKACLGPSIAIRRSTLTEIGGLESLADYLVEDFELGQRVWTGGLKMVLLPYVIDAGVNLDNWTNWWSHQLYWDQNTYLARPLPFLATIIIRAVPFAFLFTFCHWSEPWAWLILFITLATRYGTAAIVAQELKDGETIRYLPLLLLRDCFGLVFWALSFSQRQVLWRGITYRLTKGGKMIPASPIPKS”, which protein production is on record?
The protein production was “failed”.

For “MNLKQISAIIIVKNAKQTLLECLNSLKDFDEIILLNNESSDNTLNIANEFKKDFANLHIYHSAFIGFGALKNLALSYAKNDWILSIDADEVLENECIKELKNLELQEDNIIALSRKNLYKGEWIKACGWWPDYVWRIFNKNFTRFNDNLVHESLVLPSNAKKIYLKNGLRHYAFRDISHLIDKMQYYSSLWAKQNIHKKSGVLKANLRAFWTFFRNYFLKNGFLYGYKGFIISVCNALGTFFKYMKLYELQKQKPKTCALIITTYNQKERLKLVLDSVKNLAFLPNEVLIADDGSKEDTARLIEEYQKDFPCPLKHIWQEDEGFRAAKSRNNAIKASKSEYIILIDGDMILEKDFVKNHLEFAKRKVILQGSRVILNKNESEEILKNNNYSLAFNKKGFKNQRSIFLAKCVYKFSKLTKKFFKKSQLVKGSKTCNMSFYKSDFEAIEGFNEKFIGWGREDSEFVARFLFNDGVFKRLKFNALAYHIYHEENSKNMLEINHQIYLETIKNEKTTWRLEHHHHHH”, which protein production is on record?
Its protein production is “failed”.

With “MNLLPKTREEFAQTDYWNEFFKKRGEKAFEWYGEYLELCDQIHKYIKPADRILMLGCGNSKLSMDMYDTGFRDITNIDISPIAVKKMLELNAKSRPEMKFLQMDATAMTFPDESFSVSLDKGTLDALFADDEPETRAVVENYFKEILRTMRNGGRYVGISLLQEHILNFLLDFLPKHNCMLRIVHCLGVEQANKEKNADDALTLPVFVVVATKFKSLPMPVLEFGFGNDKMQRFTTVSELNSAVSSVQKAALVCNGLARSNIAGHNEVIMDLHRPSEQTPRYTIHILDKPPARGLGKYAAFIVPQGREVEWIFSTPAGRKKLQDSANFQRLAVVTLHRDQVYSTLDEVKQELADSIKNLSPAGLTDQIPYLSLGSDVGKRETLICGFSKISGDFRIEEVEANGKTLRRLIFLSNQFVVQSEALVKTVKIKGKKDRKKIDFGYLACQHHLYMSVGVQLATTVQHPKRDVEKDVLVVGLGGGGLCSFLHAALPQARITAVEIDPIMLEVAEQYFELKQDKRFHVVIDDGLDFVERCRNEDIHFDAVLFDVDSKDLSLGMSCPPQSFLATKILQHIKEIIGPKGLFMLNLVCRDESLRTEALNNLHKVFPAVCSYKLEEDINEIIYCANDEKYKTVEQWKKNMGTAGRGLNSAVKETKLASEDALEVAEFLSELKI” as the sequence, how does the protein production read?
The protein production was “failed”.

Which protein production does the source give for “MNLNAKKTTTAVQSASENPKLRVMPKQLFSRTPVLAGGNAAAKREEIREYFHSTLDRYEQLFETLRGDAAYFKKPISLRHPLIFYLGHTATFFTNKLLLAGLITDRINPKMESMFAVGVDEMSWDDLDTTHYDWPSVEEVRAYRRRMRETVDRLIRETPLTLPIEWDSPWWTIMMGIEHERIHLETSSVLIRQHALEHVAPHPAWEPCRKSGPAPDNQLVKVPEGTVQLGKKKDDPFYGWDNEYGTHIADVAAFEAGKYLVSNQEFLEFVQADGYETESYWEEEGRAWLKHAGAKHPTFWIRRGGEWELRLMTKEISMPWDWPVEVNYHEAKAFCNWKAAVSGQPYRLPTEDEWYRLYEVAGLSEVPAAAPAMANIHLDHGASSHPVNEFAQGDFYDVVGNVWQWTETPIYPFDGFDVHPHYDDFTTPTFDGRHNLIKGGSWISCGNESLKNSRYAFRRHFFQHAGFRYVVGTAPAIQHGSHYETDKLLSEYAEFHYGDTYFDVPNFPKALAELAIAAMGDKPAHKALDLGCASGRAAFELARHFDEVTGVDFSARFIGQGVQLASQGVLRYTLADEGDLVLYRERTLAGLGLDGVRHKVAFYQGDACNLKPIYTGYDLILAANLIDRLYDPAKLLTSIHTRINSGGILLIASPYTWLEEHTKREAWIGGFKRDGESFGTLDGLKEILGAHFRLIQGPTEVPFVIRETRRKFQHTLSEVTIWEKTA” here?
Its protein production is “failed”.

With “MNLPNKLTVLRIFMIPIFIIIVSVPMDWGTISFGDTTLAVTQLVGAIIFAVASFTDWLDGKIARAQGLVTNFGKFADPLADKMLVMTAFIVLVGQGKVPAWIVAIIVCRELAVTGLRLLLVEHGEVMAAAWPGKVKTATQMVAIILLFINNIPFSALHLPLDQIMLYACLIFTIYSGVDYFAKNKDVFKGSM” as the sequence, how does the protein production read?
Its protein production is “failed”.

Which protein production does the source give for “MNLPSRQWSSEVRQLVFIGFSAITAVVLSYSYVATVGLSEMLFAIVGAGLLLALVVILPVILLD” here?
Its protein production is “failed”.

For “MNLRPYQHTIVDFILTHPRCNLFVPMGLGKTVATLTALDVLLVVEDIAPILVIAPLRVAATTWPDEVAKFPHLRHLRVSVVVGSAAARRHALEQEADIYCINYDTLKWLVEFYKDRWPFRMVVADECSKLKGFRLRQGTRRARALATHVHTKVERYVGLTGTPAPNGLQDLWALMWMVDRGARLGTHFKAFIDRWFRAMQIGSDPHAVRFVPTPHASQEIQDKIRDICLSLDPHAYFDLCQPIVNTIRVALPAHAQRLYKAMEQDMFIALECGAEVEAFNAASKTIKCLQLANGALYTDDTRQAWEVVHDAKLEALHDIIEEAAGMPVLVAYHFKSDVARLQRAFPKGRALDKHPDTIRDWNAGNIPVLFAHPASAGHGLNLQDGGNILAFFGHWWDLEQYQQIIERIGPTRQAQAGHTRPVFIHHIVAAGTVDELVMARRESKREVQDLLLEAVKRRETGKPLTSQGAIAL”, which protein production is on record?
Its protein production is “failed”.

For “MNLSQQNQHSNPITEAAKATFPYSVPMIAGFLFLGIAYGIYMKALGFGFLYPTLMALLIYAGSVEFIAAGALIAPFSPISVLLITLMISARQIFYGISMLEKYGIHIGKKRWYLITTLVDESFSLNYMAKIPPHLDKGWYMFFVSLYLHIYWVLGAAMGNLFGTVLPFNLKGVEFSMTALFLVIFAENWLKGKSHESSLLGLGIALVFLLIIGKEYFLIPTLIGIWLILTMRITKLETKLESLK”, which protein production is on record?
The protein production was “failed”.

For “MNLSSASSTEEKAVTTVLWGCELSQERRTWTFRPQLEGKQSCRLLLHTICLGEKAKEEMHRVEILPPANQEDKKMQPVTIASLQASVLPMVSMVGVQLSPPVTFQLRAGSGPVFLSGQERYEASDLTWEEEEEEEGEEEEEEEEDDEDEDADISLEEQSPVKQVKRLVPQKQASVAKKKKLEKEEEEIRASVRDKSPVKKAKATARAKKPGFKK”, which protein production is on record?
Its protein production is “failed”.

Which protein production does the source give for “MNLVGIVGTNSERSTNRKLLRFMAEHFAPQAAIEVLEIKDLPAFDEPENKTAPAAVTAFSKKIAAADGVIIATPEYNHTIPAPLGSALEWIAYTSRVLVNKPVMIVGCSLGALGTSRAQAHLRQILDAPELKARVMPGTEFFLGHSEHVLDDDFNLNNPEKVAELEEHFTEFQDFVIVTNQIVKQADTDRKLEHHHHHH” here?
The protein production was “not failed”.

Which protein production does the source give for “MNLVKFTLDKANSQAYSSEQTTTEVSNMTIENGVRVLAGSMVLLSVILTWFVHPNFLWLTVFVGVNLIQSAFTGFCPAAFFLKKLGLR” here?
Its protein production is “failed”.

With “MNLYADYEYYTSTYKGNLAKEEFEKSIMKASAYVRRITFGRADDNMEMEEVKLAACSVCDLIANDEKVRSKHSGRAVTSENTDGYSVSYESGGNGETADDLLKRNIFDTLLLYLEPTRLLYMGVELLEHHHHHH” as the sequence, how does the protein production read?
The protein production was “not failed”.

For “MNLYSLLLSLITGCFLLAQGGTSFSSPVETEKSAVTAQSILEKADEIRFPQDSFQVNVAIRTAAPDHAEDLYRYQVLSKGNENSIVMITEPASERGQAILMKGRDLWVFMPSVSQPIRLSLSQRLTGQVANGDIARANFTGDYHPQLLRNESIDDEDYYVLELTGIDRSVTYQKVLLWVNQSNFRPYKAEFYSVSGRLLKTSRYENFDNILGEMRPTRIIMEDALKSGEVSVLDYSDMKLRDLPDKIFTKDYLKRLE”, which protein production is on record?
Its protein production is “failed”.
